# Values of other authors as cited in paper PMC11468230.
# Columns and labels:
# [1] = molecular target: IKCa1 (Homo sapiens) (UniProt O15554)
# [2] = molecular target: KV channel (Kv1.3) (Homo sapiens) (UniProt P22001)
# [3] = molecular target: Kv1.3 (Homo sapiens) (UniProt P22001)
# [4] = molecular target: GLP-1 receptor (Homo sapiens) (UniProt P43220)
# Chain of UniProt P43220 (P43220 24-463): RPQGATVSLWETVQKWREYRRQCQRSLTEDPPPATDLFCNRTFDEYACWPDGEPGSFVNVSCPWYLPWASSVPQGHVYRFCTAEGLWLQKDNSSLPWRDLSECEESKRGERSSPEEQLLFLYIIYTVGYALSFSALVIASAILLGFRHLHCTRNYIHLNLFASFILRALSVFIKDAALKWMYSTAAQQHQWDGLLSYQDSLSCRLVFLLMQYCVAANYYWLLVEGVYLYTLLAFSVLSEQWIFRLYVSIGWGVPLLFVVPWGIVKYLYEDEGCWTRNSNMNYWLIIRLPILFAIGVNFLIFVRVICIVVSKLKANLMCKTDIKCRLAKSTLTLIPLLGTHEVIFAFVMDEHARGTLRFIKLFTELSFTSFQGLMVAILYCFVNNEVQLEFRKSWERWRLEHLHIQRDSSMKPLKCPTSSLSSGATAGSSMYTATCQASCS
# Chain of UniProt O15554 (O15554 whole entry): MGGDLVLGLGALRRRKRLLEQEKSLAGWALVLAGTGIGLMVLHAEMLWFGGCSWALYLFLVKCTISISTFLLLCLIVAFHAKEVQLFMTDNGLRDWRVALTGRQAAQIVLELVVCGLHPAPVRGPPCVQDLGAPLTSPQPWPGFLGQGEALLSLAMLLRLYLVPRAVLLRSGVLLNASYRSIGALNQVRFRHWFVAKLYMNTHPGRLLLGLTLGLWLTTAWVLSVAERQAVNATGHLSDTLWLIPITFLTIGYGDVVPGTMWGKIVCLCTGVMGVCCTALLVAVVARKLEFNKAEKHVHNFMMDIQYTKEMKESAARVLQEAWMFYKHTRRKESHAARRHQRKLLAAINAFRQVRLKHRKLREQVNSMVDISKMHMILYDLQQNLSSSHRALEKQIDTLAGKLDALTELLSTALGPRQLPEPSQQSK
substance,measurement,setting,value
Charybdotoxin (from UniProt P13487),Kd,[1],5 nM
same,Kd,[2],3 nM
ShK (from UniProt P29187),Kd,[3],0.011 nM
exendin-4 (from UniProt P26349),Ki,[4],0.46 nM
